# Changes are numbered by the printed parent chain.
# B1: mAb1-4857 (antibody, V domains shown)
# VH: EVQLVESGGGLVQPGRSLKLSCAASGFTFDDYAMHWVRQVPGKGLEWVSGISWRGDIIGYVDSVKGRFTISRDNAKNSLYLQLNSLRAEDTALYYCVKSYGSGSFYNAFDSWGQGTLVTVSS
# VL: DIQMTQSPSTLSASAGDRVTITCRASQSISSWLAWYQQKPGKAPKFLIYKASRLERGVPSRFSGSGSGTEFSLTISSLQPDDFATYYCLEYSSYIRTFGQGTKVEIK
# B2: mAb1-4707 (antibody, V domains shown)
# VH: EVQLVESGGGLVQPGRSLRLSCAASGFTFGDYAMHWVRQAPGKGLEWVSGISWVSGSIGYARSVKGRFTISRDNAKNSLYLQMNSLRAEDTALYYCAKGQYDEDAGMDVWGQGTTVTVSS
# VL: DIQMTQSPSSLSASVGDRVTITCRASQSIRSYLNWYQQKPGKAPKLLIYAASSLQSGVPSRFSGSGSGTDFTLTISSLQPEDFATYYCQQGYPTWTFGGGTKVEIK
# B3: mAb1-4763 (antibody, V domains shown)
# VH: B2 VH with V54N, R62K
# VL: B2 VL with S28W, R30S, Q55P
# B4: mAb1-4071 (antibody, V domains shown)
# VH: EVQLVQSGAEVKKPGESLRISCKGSGYSFTPYWIGWVRQMPGKGLEWMGMIDPSDSYTDYGPSFRGHVTISADKSISTAYLQWSSLKASDTAMYYCARVRIREGAFDIWGQGTMVTVSS
# VL: DIVMTQSPLSLPVTPGEPASISCRSSQRLLHSTGYNYLNWYLQKPGQSPQLLIYLGSRRASGVPDRFSGSGSGTDFTLKISRVEAEDVGVYYCMQALHIPYTFGQGTKLEIK
# B5: mAb1-4624 (antibody, V domains shown)
# VH: B4 VH with S28R, P31S, S54T, R102M, E103S
# VL: B4 VL with R28S, G34W, R58N, A96V
# B6: mAb1-4861 (antibody, V domains shown)
# VH: B1 VH with R54N, I57N
# VL: B1 VL
# B7: mAb4-5925 (bispecific, mAb1-4857/mAb1-6723) (bispecific antibody, V domains shown)
# VH 1: B1 VH
# VL 1: B1 VL
# VH 2: EVQLVQSGAEVKKPGESLRISCKGSGYSFTTSWIVWVRQMPGKGLEWMGMIDPSDSFTSYSPSFQGHVTISADKSISTAYLQWSSLKASDTAMYYCARLHYYHSEEFDVWGQGTLVTVSS
# VL 2: EIVLTQSPGTLSLSPGERATLSCRASQSVSSSYLAWYQQKPGQAPRLLIYGASSRARGIPDRFSGSGSGTDFTLTISRLEPEDFAVYYCQQFGSSRLFTFGQGTKLEIK
# Biological target: T1, human plasma-derived FIXa (Haematologic Technologies Inc) (human, UniProt P00740 47-191; P00740 227-461)
# T1 sequence (P00740 47-191, chain 1 of 2): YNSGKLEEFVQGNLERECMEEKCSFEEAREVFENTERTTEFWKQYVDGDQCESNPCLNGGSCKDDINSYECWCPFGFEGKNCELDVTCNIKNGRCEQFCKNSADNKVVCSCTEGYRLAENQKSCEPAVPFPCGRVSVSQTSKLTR
# T1 sequence (P00740 227-461, chain 2 of 2): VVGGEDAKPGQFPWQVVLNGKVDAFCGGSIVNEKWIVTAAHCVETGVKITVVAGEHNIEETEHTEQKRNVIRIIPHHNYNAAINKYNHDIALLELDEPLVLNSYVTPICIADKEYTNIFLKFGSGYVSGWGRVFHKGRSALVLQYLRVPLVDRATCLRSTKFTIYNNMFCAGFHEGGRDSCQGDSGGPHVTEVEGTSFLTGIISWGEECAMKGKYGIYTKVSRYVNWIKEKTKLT
# Test: cell-based or functional assay
Binder,FXa generation rate at 3.2 nM mAb,FXa generation rate at 6.3 nM mAb,FXa generation rate at 12.5 nM mAb,FXa generation rate at 25 nM mAb,FXa generation rate at 50 nM mAb,FXa generation rate at 100 nM mAb,FXa generation rate at 200 nM mAb
B1,302 pM/min,491 pM/min,685 pM/min,1000 pM/min,1190 pM/min,1260 pM/min,1300 pM/min
B2,662 pM/min,714 pM/min,697 pM/min,685 pM/min,629 pM/min,581 pM/min,586 pM/min
B3,370 pM/min,390 pM/min,381 pM/min,373 pM/min,369 pM/min,375 pM/min,401 pM/min
B4,43 pM/min,65 pM/min,97 pM/min,131 pM/min,173 pM/min,198 pM/min,208 pM/min
B5,383 pM/min,550 pM/min,752 pM/min,851 pM/min,989 pM/min,1000 pM/min,960 pM/min
B6,434 pM/min,415 pM/min,385 pM/min,382 pM/min,352 pM/min,364 pM/min,411 pM/min

# Biological target: T1, human plasma-derived FIXa (Haematologic …)
# Test: cell-based or functional assay
# Remark: another data set of the same source
row,Binder,Peak stimulatory activity relative to 224F3
1,B1,66.5 fold relative to 224F3
2,B2,35.9 fold relative to 224F3
3,B3,20 fold relative to 224F3
4,B4,10.4 fold relative to 224F3
5,B5,50.1 fold relative to 224F3
6,B6,21.7 fold relative to 224F3

# Biological target: T1, human plasma-derived FIXa (Haematologic …)
# Test: cell-based or functional assay
# Remark: another data set of the same source
row,Binder,"Maximum stimulation (fold), at 533 nM BiAb"
1,B7,5200 fold
